pKd: −log10 of the molar value.
Experiments:
tocilizumab [1] = assay: BLI (BLItz), biotinylated ligand on sensor, antibody in solution
tocilizumab [2] = assay: BLItz biolayer interferometry; biotinylated ligand immobilized on the chip, tocilizumab at 41.34, 82.68 and 165.3 nM in PBS (+0.1% BSA); same fitted value in all three rows of the table [C]

Sequence of tocilizumab (VH, as listed by the source, chain 1 of 2): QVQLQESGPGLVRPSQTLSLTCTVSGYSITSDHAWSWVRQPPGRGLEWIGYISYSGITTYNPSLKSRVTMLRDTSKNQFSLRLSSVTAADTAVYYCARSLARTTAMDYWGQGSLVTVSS
Sequence of tocilizumab (VL, as listed by the source, chain 2 of 2): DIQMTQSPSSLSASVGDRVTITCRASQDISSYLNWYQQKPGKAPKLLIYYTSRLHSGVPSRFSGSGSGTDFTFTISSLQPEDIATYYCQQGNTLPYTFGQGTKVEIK

Work on ligand of MabSelect SuRe yielded a pKd (tocilizumab [1]) of 8.09, a koff (tocilizumab [2]) of 0.00281 s⁻¹ and a kon (tocilizumab [2]) of 346000 M⁻¹ s⁻¹.

Reference: patent US20220213140A1
